What all share (details): liposome binding signal on yeast proteome chip, Cy3-streptavidin detection
One data set has as its system PI(3,4)P2 liposomes. Nature of the data set: Yeast proteome chip probed with PI(3,4)P2 liposomes. An excerpt:
(§1) To identify PI-binding proteins in yeast, liposomes were used as probes because the liposome provides the most relevant physiological condition to assay the interactors. Six types of liposomes were used. Each contains phosphatidylcholine (“PC”) with 1% (w/w) N-(biotinoyl)-1,2-dihexadecanoyl-sn-glycero-3-phosphoethanolamine, triethylammonium salt (biotin DHPE). The biotinylated lipid serves as a label that can be detected by Cy3-streptavidin (21). In addition to PC, the five other liposomes contain either 5% (w/w) PI(3)P, PI(4)P, PI(3,4)P2, PI(4,5)P2, or PI(3,4,5)P3 (FIG. 3A).
(§2) The protein-liposome interaction was assayed as follows. Appropriate amounts of each lipid in chloroform were mixed and dried under nitrogen. The lipid mixture was resuspended in TBS buffer by vortexing. The liposomes were created by sonication. Blocked proteome chips were washed three to five times in PBS buffer, and the extra liquid on the glass surface was removed by tapping the slides vertically on a KIMWIPE™. 200 μl of liposome solution was added to the proteome chip and immediately covered by a hydrophobic plastic cover slip (GRACE BIO-LAB™, USA). After trapped air bubbles were removed, the chip was incubated in a humidity chamber at RT for one hour. To remove the cover slip, the chip was immersed into large volume of PBS buffer (50 ml), so that the slip would float away. The chip was then moved to a second PBS bath (>50 ml) and washed 3×5 min with shaking at RT. After removing extra liquid on the surface of the chip, about 100 μl of Cy3 or Cy5 conjugated streptavidin (PIERCE™, USA; 1:2000 to 1:4000 dilution) was added to the surface and covered by a hydrophobic plastic cover slip (GRACE BIO-LABS™, USA). The chip was incubated for greater than 30 min in the dark at RT. The chip was then washed as described above. To completely remove the liquid on the chip, the chip was spun to dryness at 1500-2000 rpm for 5-10 min at RT.
(§3) • 1. S. Fields, Y. Kohara, D. J. Lockhart, Proc. Natl. Acad. Sci. 96, 8825 (1999); A. Goffeau et al., Science 274, 563 (1996). • 2 P. Ross-Macdonald et al., Nature 402, 413 (1999); J. L., DeRisi, V. R. Iyer, P. O. Brown, Science 278, 680 (1997); E. A. Winzeler et al., Science 285, 901 (1999). P. Uetz et al., Nature 403, 623 (2000); T. Ito et al., Proc. Natl. Acad. Sci. USA. 97, 1143 (2000) • 3 H. Zhu, M. Snyder, Curr. Opin. Chem. Biol. 5, 40 (2001). • 4 M. R. Martzen et al., Science 286, 1153 (1999). • 5 H. Zhu et al., Nat. Genet. 26, 283 (2000). • 6 G. MacBeath, S. L. Schreiber, Science 289, 1760 (2000). • 7 A. Caveman, J. Cell Sci. 113, 3543 (2000). • 8 P. Arenkov et al., Anal. Biochem 278, 123 (2000). • 9 D. A. Mitchell, T. K. Marshall, R. J. Deschenes, Yeast 9, 715 (1993). The expression vector pEGH was created by inserting an RGS-HisX6 epitope tag between the GST gene and the polycloning site of pEG(KG). The yeast ORFs were cloned using the strategy described previously (5), except every step was done in a 96-well format. Plasmid DNAs confirmed by DNA sequencing were reintroduced into both yeast (Y258) and E. coli (DH5a). […] 0.1 mM calcium was present in buffers in all subsequent steps. The chip was washed three times with PBS at RT. Cy3-conjugated streptavidin (Jackson IR, USA) (1:5000 dilution) was added to the chip and incubated for 30 min at RT. After extensive washing, the chip was spun dry and scanned using a microarray scanner; the data was subsequently acquired with the GENEPIX™ array densitometry software (Axon, USA). • 12 S. S. Hook, A. R. Means, Annu. Rev. Pharmacol. Toxicol.41, 471 (2001). • 13 M. S. Cyert, R. Kunisawa, D. Kaim, J. Thorner, Proc. Natl. Acad. Sci. USA 88, 7376 (1991). • 14 D. A. Stirling, K. A. Welch, M. J. Stark, EMBO J. 13, 4329 (1994). • 15 F. Bohl, Kruse, EMBO J. 19, 5514 (2000); E. Bertrand et al., Mol. Cell 2, 437 (1998). • 16 D. C. Winter, E. Y. Choe, R. Li, Proc. Nat. Acad Sci. USA 96, 7288 (1999). • 17 C.

Another data set concerns PI(4)P liposomes. Put plainly: Yeast proteome chip probed with PI(4)P liposomes.
Excerpt: as §1, §2, §3

Data set [1] concerns phosphatidylcholine (PC) liposomes. Put plainly: Yeast proteome chip probed with PC liposomes.
Excerpt: as §1, §2, §3

For another data set, the system named is PI(3,4,5)P3 liposomes. Nature of the data set: Yeast proteome chip probed with PI(3,4,5)P3 liposomes.
Excerpt: as §1, §2, §3

The next data set relates to PI(4,5)P2 liposomes. Nature of the data set: Yeast proteome chip probed with PI(4,5)P2 liposomes.
Excerpt: as §1, §2, §3

This note sets out measurements from patent US20050182242A1, “Global analysis of protein activities using proteome chips” (priority 2001, published 2005).

B1: GFA1: yeast GST-HisX6 fusion protein on proteome chip (protein, UniProt P14742 2-717, looked up)
Glutamine--fructose-6-phosphat …: CGIFGYCNYLVERSRGEIIDTLVDGLQRLEYRGYDSTGIAIDGDEADSTFIYKQIGKVSALKEEITKQNPNRDVTFVSHCGIAHTRWATHGRPEQVNCHPQRSDPEDQFVVVHNGIITNFRELKTLLINKGYKFESDTDTECIAKLYLHLYNTNLQNGHDLDFHELTKLVLLELEGSYGLLCKSCHYPNEVIATRKGSPLLIGVKSEKKLKVDFVDVEFPEENAGQPEIPLKSNNKSFGLGPKKAREFEAGSQNANLLPIAANEFNLRHSQSRAFLSEDGSPTPVEFFVSSDAASVVKHTKKVLFLEDDDLAHIYDGELHIHRSRREVGASMTRSIQTLEMELAQIMKGPYDHFMQKEIYEQPESTFNTMRGRIDYENNKVILGGLKAWLPVVRRARRLIMIACGTSYHSCLATRAIFEELSDIPVSVELASDFLDRKCPVFRDDVCVFVSQSGETADTMLALNYCLERGALTVGIVNSVGSSISRVTHCGVHINAGPEIGVASTKAYTSQYIALVMFALSLSDDRVSKIDRRIEIIQGLKLIPGQIKQVLKLEPRIKKLCATELKDQKSLLLLGRGYQFAAALEGALKIKEISYMHSEGVLAGELKHGVLALVDENLPIIAFGTRDSLFPKVVSSIEQVTARKGHPIIICNENDEVWAQKSKSIDLQTLEVPQTVDCLQGLINIIPLQLMSYWLAVNKGIDVDFPRNLAKSVTVE
modifications: GST-His6 tag
notes: yeast GST-HisX6 fusion protein on proteome chip
As for B1, in the data set with PI(3,4)P2 liposomes, the “PI(3, 4)P2” value is listed as −8.63. Further, in the data set on PI(4)P liposomes, the “PI(4)P” value was 3.05. The same molecule registered a PC in data set [1] of −1.76. In the data set with PI(3,4,5)P3 liposomes, the “PI(3, 4, 5)P3” value is −6.53. The “PI(4, 5)P2” value in the data set with PI(4,5)P2 liposomes is recorded as −7.62.

B2: BPL1: yeast GST-HisX6 fusion protein on proteome chip (protein, UniProt P48445 1-690, looked up)
Biotin--protein ligase: MNVLVYNGPGTTPGSVKHAVESLRDFLEPYYAVSTVNVKVLQTEPWMSKTSAVVFPGGADLPYVQACQPIISRLKHFVSKQGGVFIGFCAGGYFGTSRVEFAQGDPTMEVSGSRDLRFFPGTSRGPAYNGFQYNSEAGARAVKLNLPDGSQFSTYFNGGAVFVDADKFDNVEILATYAEHPDVPSSDSGKGQSENPAAVVLCTVGRGKVLLTGPHPEFNVRFMRKSTDKHFLETVVENLKAQEIMRLKFMRTVLTKTGLNCNNDFNYVRAPNLTPLFMASAPNKRNYLQEMENNLAHHGMHANNVELCSELNAETDSFQFYRGYRASYDAASSSLLHKEPDEVPKTVIFPGVDEDIPPFQYTPNFDMKEYFKYLNVQNTIGSLLLYGEVVTSTSTILNNNKSLLSSIPESTLLHVGTIQVSGRGRGGNTWINPKGVCASTAVVTMPLQSPVTNRNISVVFVQYLSMLAYCKAILSYAPGFSDIPVRIKWPNDLYALSPTYYKRKNLKLVNTGFEHTKLPLGDIEPAYLKISGLLVNTHFINNKYCLLLGCGINLTSDGPTTSLQTWIDILNEERQQLHLDLLPAIKAEKLQALYMNNLEVILKQFINYGAAEILPSYYELWLHSNQIVTLPDHGNTQAMITGITEDYGLLIAKELVSGSSTQFTGNVYNLQPDGNTFDIFKSLIAKKVQS
modifications: GST-HisX6 tag
notes: as for B1
Turning to B2, the “PI(3, 4)P2” value with PI(3,4)P2 liposomes turned out to be 6.59. Moreover, in the data set on PI(4)P liposomes, the “PI(4)P” value was determined as 25.26. For the same molecule, the PC in data set [1] was 5.28. Moreover, the “PI(3, 4, 5)P3” value in the data set on PI(3,4,5)P3 liposomes is 8.77. For the same molecule, in the data set on PI(4,5)P2 liposomes, the “PI(4, 5)P2” value amounted to 22.21.

B3: YER046W: yeast GST-HisX6 fusion protein on proteome chip (protein, UniProt P40031 1-143, looked up)
Sporulation-specific protein …: MGKNHFLKDFSALPEDVLIENERGITLLGYPLFSPKILLPHVDPPQFQRLNTENGSLIALSKNTISNFIELYPIDLSTERTAGSSSSQMTKWFVLMDYKEKYDIDDQGWCYSWNFNNSRWKSKNGLVRRRVWVRLPTTSHGLD
modifications: GST-His6 tag
notes: as for B1
For the molecule B3, in the data set on PI(3,4)P2 liposomes, the “PI(3, 4)P2” value is listed as 11.62. Besides, the “PI(4)P” value with PI(4)P liposomes is on record as 19.16. Further, the PC in data set [1] was −18.20. In addition, the “PI(3, 4, 5)P3” value in the data set on PI(3,4,5)P3 liposomes turned out to be 5.62. Besides, the “PI(4, 5)P2” value in the data set on PI(4,5)P2 liposomes turned out to be 6.31.

B4: RTG3: yeast GST-HisX6 fusion protein on proteome chip (protein, UniProt P38165 1-486, looked up)
Retrograde regulation protein …: MMNNNESEAENQRLLDELMNQTKVLQETLDFSLVTPTPHHNDDYKIHGSAYPGGETPAQQHEKLSYINTHNSNDNNNLMGSQARSNSQTPTASTIYEEAESQSSYLDDMFRTSQGGRPVTQNSISSIGQGPLRSSYSMAYDSPVDRAMNTPLQQQEGLKAELPHDFLFQHGTDDTMYNLTDDLSSSLSSSINSDMMTPNTYSSSFSYNPQSLGPASVSSTYSPKVRSPSSSFRAGSFLSSSFRHGSINTPRTRHTSISSNMTENIGPGSVPKILGGLTSDEKLRRKREFHNAVERRRRELIKQKIKELGQLVPPSLLNYDDLGKQIKPNKGIILDRTVEYLQYLAEILEIQARKKKALLAKIKELEEKKSSVAALSPFTNNHHASSGQNNSENSEERIIDIRSVPNALMNEQNSKAELHNWEPPLYDSVGNHNHAGTMESHPHTNIHEELKEFLSGDLIEAEDNAKLMFGDDNSNPADYLLEFGSG
modifications: GST-His6 tag
notes: as for B1
B4: the “PI(3, 4)P2” value in the data set on PI(3,4)P2 liposomes is reported as 0.16. Also, the “PI(4)P” value in the data set on PI(4)P liposomes came out at 12.19. In data set [1], this molecule had a PC of 5.58. Besides, the “PI(3, 4, 5)P3” value in the data set with PI(3,4,5)P3 liposomes was −5.29. Further, the “PI(4, 5)P2” value with PI(4,5)P2 liposomes is recorded as 12.41.

B5: PAT1: yeast GST-HisX6 fusion protein on proteome chip (protein, UniProt P25644 2-796, looked up)
Deadenylation-dependent …: SFFGLENSGNARDGPLDFEESYKGYGEHELEENDYLNDETFGDNVQVGTDFDFGNPHSSGSSGNAIGGNGVGATARSYVAATAEGISGPRTDGTAAAGPLDLKPMESLWSTAPPPAMAPSPQSTMAPAPAPQQMAPLQPILSMQDLERQQRQMQQQFMNFHAMGHPQGLPQGPPQQQFPMQPASGQPGPSQFAPPPPPPGVNVNMNQMPMGPVQVPVQASPSPIGMSNTPSPGPVVGATKMPLQSGRRSKRDLSPEEQRRLQIRHAKVEKILKYSGLMTPRDKDFITRYQLSQIVTEDPYNEDFYFQVYKIIQRGGITSESNKGLIARAYLEHSGHRLGGRYKRTDIALQRMQSQVEKAVTVAKERPSKLKDQQAAAGNSSQDNKQANTVLGKISSTLNSKNPRRQLQIPRQQPSDPDALKDVTDSLTNVDLASSGSSSTGSSAAAVASKQRRRSSYAFNNGNGATNLNKSGGKKFILELIETVYEEILDLEANLRNGQQTDSTAMWEALHIDDSSYDVNPFISMLSFDKGIKIMPRIFNFLDKQQKLKILQKIFNELSHLQIIILSSYKTTPKPTLTQLKKVDLFQMIILKIIVSFLSNNSNFIEIMGLLLQLIRNNNVSFLTTSKIGLNLITILISRAALIKQDSSRSNILSSPEISTWNEIYDKLFTSLESKIQLIFPPREYNDHIMRLQNDKFMDEAYIWQFLASLALSGKLNHQRIIIDEVRDEIFATINEAETLQKKEKELSVLPQRSQELDTELKSIIYNKEKLYQDLNLFLNVMGLVYRDGEISELK
modifications: GST-HisX6 tag
notes: as for B1
Turning to B5, the “PI(3, 4)P2” value with PI(3,4)P2 liposomes was found to be 10.05. The “PI(4)P” value in the data set with PI(4)P liposomes was found to be 158.95. The same molecule gave a PC in data set [1] of 160.24. In the data set on PI(3,4,5)P3 liposomes, the “PI(3, 4, 5)P3” value was 56.47. The “PI(4, 5)P2” value in the data set with PI(4,5)P2 liposomes is reported as 66.63.
